Data set [1] has as its target T1, hCol2 (human Type II collagen) (Homo sapiens, UniProt P02458).
T1 construct: purchased Chondrex
The experiment in a line: Binding analysis by SPR (Biacore 3000) vs human type II collagen. On the procedure: (§1) Proteins with affinity tag were purified by affinity chromatography and size exclusion. After affinity chromatography purification using Strep-Tactin Superflow high capacity cartridges (IBA Lifesciences) a size exclusion chromatography (SEC) was performed using an Äkta system and a Superdex™ 200 HiLoad 16/600 column (Cytiva). Fused variants with Aflibercept were purified via MabSelect SuRe (Cytiva) affinity chromatography followed by a size exclusion chromatography (SEC) using an Äkta system and a Superdex™ 200 HiLoad 16/600 column (Cytiva). All chromatography processing steps were carried out on AKTA systems using matrices from Cytiva. Homogenous species of all purified ligands were obtained; no aggregation was detected. Following SOS-PAGE analysis positive fractions were pooled and their protein concentrations were measured. Further analysis included SOS-PAGE, SE-HPLC and RP-HPLC. Protein concentrations were determined by absorbance measurement at 280 nm using the molar absorbent coefficient. Reversed phase chromatography (RP-HPLC) was performed using a Dionex HPLC system and a PLRP-S (5 μm, 300 Å) column (Agilent). Analytic size exclusion chromatography (SE-HPLC) was performed using a Dionex HPLC system and a Superdex200 increase 5/150 GL (Cytiva). Binding of Collagen II was evaluated by SPR measurements using a Biacore 3000 system. Purified Collagen II was obtained from Chondrex.inc and VEGF-165 was obtained from Millipore. Targets were immobilized on a CM5-Sensor via NHS/EDC chemistry (immobilization level ˜1000 RU). Binding molecules were injected at different concentration and affinity was calculated by langmuir 1:1 binding model.
(§2) The purified proteins were immobilized on a CM-5 sensor chip (GE Healthcare) using NHS/EDC after PDEA activation resulting in 110-140 RU with a Biacore 3000 system (GE Healthcare). The chip was equilibrated with SPR running buffer (PBS 0.05% Tween pH 7.3). Upon binding, target analyte was accumulated on the surface increasing the refractive index. This change in the refractive index was measured in real time and plotted as response or resonance units versus time. The analytes were applied to the chip in serial dilutions with a flow rate of 30 μl/min. The association was performed for 120 seconds and the dissociation for 120 seconds. After each run, the chip surface was regenerated with 30 μl regeneration buffer (10 mM glycine pH 2.0) and equilibrated with running buffer.
(§3) Binding studies were carried out by the use of the BIAcore 3000 (GE Healthcare); data evaluation was operated via the BIAevaluation 3.0 software, provided by the manufacturer, using the Langmuir 1:1 model (RI=0). Evaluated dissociation constants (KD) were standardized against the immobilized protein and indicated. Shown is the change in refractive index measured in real time and plotted as response or resonance unit [RU] versus time [sec].
Background: In SPR one partner is held on a chip, and binding of the other changes the refractive index at the surface.

The target in another data set is Type V collagen (Homo sapiens, UniProt P05997+P20908). Nature of the data set: SPR specificity vs Type V collagen. The data set is classed as binding. On the procedure: as §2, §3
The target of data set [2] is T2, recombinant human collagen type II (h Col II) (Homo sapiens, UniProt P02458).
T2 construct: purchased Chondrex CHX-20051
The experiment in a line: KD-determination by ELISA vs human collagen type II. Type of data set: binding. On the procedure:
(§4) High binding plates (Greiner, 781061) were immobilized with 2.5 μg/ml recombinant human collagen type II (h Col II, Chondrex, CHX-20051), rabbit collagen type II (rbCol II, prepared from rabbit eyes), porcine collagen type II (p Col II, prepared from porcine eyes), human collagen type I, (h Col I, Sigma, C5483-1MG), human collagen type V (h Col V, Abcam, ab7537), human collagen type III (h Col Ill, Abcam, ab7535) and 67B89 (domain of fibronectin, produced in E. coli) respectively over night at 4° C. ELISA-plates were washed 3 times with PBST (PBS+ 0.1% Tween) and blocked with 3% BSA/0.5% Tween/PBS 2 h at RT. After washing with PBST, dilution series of 1.1 μM to 7×10^−4 nM of dimers (CID 211999, CID 212000), dilution series of 100 nM to 7×10^−6 nM of tetramers (CID 212001 and CID 212704) and dilution series of 10 μM to 2 nM of dimer (CID 212705) were incubated on ELISA-plates 1 h at rt. Plates were washed with PBST and incubated with biotinylated anti-StrepTag-ab (Antikörper-online, ABIN1573895) with a dilution of 1:10.000 for 1 h at rt. The binding was visualized with a-rabbit-IgG-HRP (Sigma, A9169) with a dilution of 1:10.000 and as substrate TMB Plus von KEM EN TEC Diagnostic, Kat-Nr. 4395.
For orientation: An ELISA detects its analyte on a solid surface through an enzyme-linked reagent.

In a further data set the target is T3, Type III collagen (Homo sapiens, UniProt P02461).
T3 sequence (P02461 154-1221 limits assumed): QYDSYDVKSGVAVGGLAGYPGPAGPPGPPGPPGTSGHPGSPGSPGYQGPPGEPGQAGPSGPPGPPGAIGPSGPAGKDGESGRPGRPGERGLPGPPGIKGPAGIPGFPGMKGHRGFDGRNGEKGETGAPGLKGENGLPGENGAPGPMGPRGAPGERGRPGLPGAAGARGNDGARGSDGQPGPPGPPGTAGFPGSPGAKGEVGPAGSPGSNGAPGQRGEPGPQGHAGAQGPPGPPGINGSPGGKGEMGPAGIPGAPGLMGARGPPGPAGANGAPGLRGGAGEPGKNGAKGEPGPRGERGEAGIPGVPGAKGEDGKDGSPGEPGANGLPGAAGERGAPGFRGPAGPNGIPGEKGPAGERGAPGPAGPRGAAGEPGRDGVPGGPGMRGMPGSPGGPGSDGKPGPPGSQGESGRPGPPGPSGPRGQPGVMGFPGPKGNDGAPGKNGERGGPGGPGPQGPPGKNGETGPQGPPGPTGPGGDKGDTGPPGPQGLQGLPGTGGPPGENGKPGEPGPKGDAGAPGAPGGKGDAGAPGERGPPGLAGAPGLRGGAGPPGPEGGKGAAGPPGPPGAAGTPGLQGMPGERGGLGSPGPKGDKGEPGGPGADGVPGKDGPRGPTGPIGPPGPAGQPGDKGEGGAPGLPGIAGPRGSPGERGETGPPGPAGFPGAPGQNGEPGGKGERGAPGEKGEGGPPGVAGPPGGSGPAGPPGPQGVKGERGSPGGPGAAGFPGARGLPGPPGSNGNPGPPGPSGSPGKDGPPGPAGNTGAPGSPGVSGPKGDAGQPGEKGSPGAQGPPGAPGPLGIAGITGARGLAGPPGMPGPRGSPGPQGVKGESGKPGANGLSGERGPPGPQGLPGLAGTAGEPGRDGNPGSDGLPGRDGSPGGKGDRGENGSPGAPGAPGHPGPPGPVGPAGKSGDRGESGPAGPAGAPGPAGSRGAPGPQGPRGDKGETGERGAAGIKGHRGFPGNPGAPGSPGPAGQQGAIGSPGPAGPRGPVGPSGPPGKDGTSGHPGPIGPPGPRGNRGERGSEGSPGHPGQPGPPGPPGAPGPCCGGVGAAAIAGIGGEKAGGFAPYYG
The experiment in a line: SPR specificity vs Type III collagen. The data set is classed as binding. How it is done: as §2, §3

Data set [3] has as its target T4, porcine collagen type II (p Col II) (Sus scrofa, UniProt A0A287A2Q7).
T4 construct: porcine collagen type II (p Col II, prepared from porcine eyes); from tissue; host or cells: porcine eyes
Nature of the data set: KD-determination by ELISA vs porcine collagen type II. The data set is classed as binding. On the procedure:
as §4

The nature of data set [4]: Soluble expression in Escherichia coli BL21(DE3). The data set is classed as physicochemical. The following applies: expression in E. coli BL21(DE3). How it is done: Variants with affinity tag were expressed in Escherichia coli BL21(DE3) using a low copy plasmid system under regulation of a T7 promoter. Proteins were produced in soluble form after induction by lactose included in the medium (autoinduction medium). BL21 (DE3) competent cells were transformed with the expression plasmid, spread onto selective agar plates (kanamycin) and incubated overnight at 37° C. Precultures were inoculated from single colony in 3 ml 2×YT medium supplemented with 50 μg/ml kanamycin and cultured for 6 hours at 37° C. at 200 rpm in a conventional orbital shaker in culture tubes. […] Cultures were transferred to an orbital shaker and incubated at 30° C. and 200 rpm. Recombinant protein expression was induced by metabolizing glucose and subsequently allowing lactose to enter the cells. Cells were grown overnight for approx. 17 hours to reach a final OD600 of about 2-4. Before the harvest, the OD600 was measured, samples adjusted to 0.6/OD600 were withdrawn, pelleted and frozen at −20° C. To collect biomass cells were centrifuged at 12000×g for 15 min at 22° C. Pellets were weighed (wet weight). Cells were stored at −20° C. before processing.
as §1

The next data set deals with Type I collagen (Homo sapiens, UniProt P02452+P08123). Nature of the data set: SPR specificity vs Type I collagen. The data set is classed as binding. How it is done: as §2, §3
Type I collagen, sequence (P02452 162-1218 limits assumed): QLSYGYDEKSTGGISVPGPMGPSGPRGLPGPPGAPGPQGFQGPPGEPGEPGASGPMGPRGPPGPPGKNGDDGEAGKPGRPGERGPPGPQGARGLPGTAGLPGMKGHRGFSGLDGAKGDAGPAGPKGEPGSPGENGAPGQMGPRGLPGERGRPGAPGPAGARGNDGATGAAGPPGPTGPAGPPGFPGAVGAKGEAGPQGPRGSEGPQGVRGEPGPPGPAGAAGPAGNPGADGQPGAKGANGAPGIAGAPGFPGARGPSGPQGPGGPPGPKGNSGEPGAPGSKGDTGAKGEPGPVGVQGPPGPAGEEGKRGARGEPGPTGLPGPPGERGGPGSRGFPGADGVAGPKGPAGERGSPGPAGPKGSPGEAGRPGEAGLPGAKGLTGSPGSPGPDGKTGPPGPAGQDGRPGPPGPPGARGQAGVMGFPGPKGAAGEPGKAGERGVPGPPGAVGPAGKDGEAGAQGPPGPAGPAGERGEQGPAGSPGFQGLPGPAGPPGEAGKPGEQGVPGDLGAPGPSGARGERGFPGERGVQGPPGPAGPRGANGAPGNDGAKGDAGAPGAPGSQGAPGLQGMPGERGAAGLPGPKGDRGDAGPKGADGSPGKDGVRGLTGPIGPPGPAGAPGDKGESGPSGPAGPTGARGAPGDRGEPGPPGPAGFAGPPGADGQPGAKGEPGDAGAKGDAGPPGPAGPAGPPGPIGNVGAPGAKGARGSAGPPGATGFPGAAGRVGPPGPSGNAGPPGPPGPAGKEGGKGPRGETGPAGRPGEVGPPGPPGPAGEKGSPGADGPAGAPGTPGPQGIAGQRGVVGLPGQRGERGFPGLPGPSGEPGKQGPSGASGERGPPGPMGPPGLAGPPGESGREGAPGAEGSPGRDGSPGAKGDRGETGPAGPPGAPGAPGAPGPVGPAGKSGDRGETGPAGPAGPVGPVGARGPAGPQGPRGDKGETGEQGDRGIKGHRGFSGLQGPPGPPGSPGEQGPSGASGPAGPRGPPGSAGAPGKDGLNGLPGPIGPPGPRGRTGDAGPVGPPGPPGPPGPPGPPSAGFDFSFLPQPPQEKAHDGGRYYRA
Type I collagen, sequence (P08123 80-1119 limits assumed): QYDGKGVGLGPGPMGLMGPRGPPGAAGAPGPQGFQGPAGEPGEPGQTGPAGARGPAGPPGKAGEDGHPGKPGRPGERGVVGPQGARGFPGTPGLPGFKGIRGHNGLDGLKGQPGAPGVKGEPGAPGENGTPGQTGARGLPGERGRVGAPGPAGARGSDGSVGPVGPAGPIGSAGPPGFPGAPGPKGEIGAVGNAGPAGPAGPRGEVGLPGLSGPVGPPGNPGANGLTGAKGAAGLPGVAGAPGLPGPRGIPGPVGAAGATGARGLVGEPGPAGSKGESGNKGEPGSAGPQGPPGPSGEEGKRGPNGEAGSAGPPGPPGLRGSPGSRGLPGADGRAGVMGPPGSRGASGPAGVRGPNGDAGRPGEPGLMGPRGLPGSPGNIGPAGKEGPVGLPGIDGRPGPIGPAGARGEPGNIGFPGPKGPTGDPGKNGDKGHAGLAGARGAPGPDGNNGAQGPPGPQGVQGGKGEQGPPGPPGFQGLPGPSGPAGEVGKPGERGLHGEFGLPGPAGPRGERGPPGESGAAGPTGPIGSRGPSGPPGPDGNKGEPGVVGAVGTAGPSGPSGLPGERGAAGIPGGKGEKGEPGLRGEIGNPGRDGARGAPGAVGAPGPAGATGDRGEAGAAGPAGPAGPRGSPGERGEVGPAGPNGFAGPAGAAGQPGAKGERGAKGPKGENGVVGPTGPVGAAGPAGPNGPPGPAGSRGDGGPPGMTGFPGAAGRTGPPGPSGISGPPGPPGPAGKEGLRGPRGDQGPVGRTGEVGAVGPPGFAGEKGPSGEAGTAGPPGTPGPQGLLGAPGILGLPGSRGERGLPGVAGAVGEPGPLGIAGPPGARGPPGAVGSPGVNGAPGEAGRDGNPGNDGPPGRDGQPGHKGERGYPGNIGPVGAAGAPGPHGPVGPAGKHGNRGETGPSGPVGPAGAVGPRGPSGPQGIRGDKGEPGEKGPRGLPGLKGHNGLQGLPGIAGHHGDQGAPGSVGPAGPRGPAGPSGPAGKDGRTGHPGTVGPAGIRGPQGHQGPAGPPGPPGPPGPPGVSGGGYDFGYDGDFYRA

T1 sequence (P02458 182-1241): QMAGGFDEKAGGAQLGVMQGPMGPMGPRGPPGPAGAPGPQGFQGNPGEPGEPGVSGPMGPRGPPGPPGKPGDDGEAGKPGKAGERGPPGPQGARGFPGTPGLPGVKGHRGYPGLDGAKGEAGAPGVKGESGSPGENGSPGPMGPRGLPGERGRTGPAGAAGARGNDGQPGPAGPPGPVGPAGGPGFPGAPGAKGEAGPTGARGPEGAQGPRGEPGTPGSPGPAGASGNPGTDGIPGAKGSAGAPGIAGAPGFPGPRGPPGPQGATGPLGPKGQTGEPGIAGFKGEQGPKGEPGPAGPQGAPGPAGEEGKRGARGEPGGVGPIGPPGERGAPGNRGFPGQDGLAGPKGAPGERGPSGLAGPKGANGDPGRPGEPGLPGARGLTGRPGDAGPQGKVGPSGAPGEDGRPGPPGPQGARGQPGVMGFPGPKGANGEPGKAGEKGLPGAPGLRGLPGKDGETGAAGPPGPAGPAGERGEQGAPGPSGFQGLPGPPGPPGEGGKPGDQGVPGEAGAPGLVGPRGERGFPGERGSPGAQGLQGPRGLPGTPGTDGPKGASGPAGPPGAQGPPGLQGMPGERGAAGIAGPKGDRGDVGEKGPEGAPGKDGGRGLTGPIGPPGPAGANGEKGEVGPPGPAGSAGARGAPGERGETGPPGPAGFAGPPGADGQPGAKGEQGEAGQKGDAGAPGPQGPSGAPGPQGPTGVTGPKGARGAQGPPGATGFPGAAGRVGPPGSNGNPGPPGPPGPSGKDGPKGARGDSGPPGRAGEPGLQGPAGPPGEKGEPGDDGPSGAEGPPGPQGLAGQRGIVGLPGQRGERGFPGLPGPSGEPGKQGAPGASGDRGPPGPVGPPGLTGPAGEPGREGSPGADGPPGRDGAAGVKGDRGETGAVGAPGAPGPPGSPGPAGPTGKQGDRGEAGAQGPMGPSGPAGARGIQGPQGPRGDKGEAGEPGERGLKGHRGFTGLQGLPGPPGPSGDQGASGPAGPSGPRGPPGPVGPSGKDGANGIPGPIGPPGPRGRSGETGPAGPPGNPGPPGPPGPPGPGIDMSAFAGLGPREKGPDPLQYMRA
T4 sequence (A0A287A2Q7 26-1486): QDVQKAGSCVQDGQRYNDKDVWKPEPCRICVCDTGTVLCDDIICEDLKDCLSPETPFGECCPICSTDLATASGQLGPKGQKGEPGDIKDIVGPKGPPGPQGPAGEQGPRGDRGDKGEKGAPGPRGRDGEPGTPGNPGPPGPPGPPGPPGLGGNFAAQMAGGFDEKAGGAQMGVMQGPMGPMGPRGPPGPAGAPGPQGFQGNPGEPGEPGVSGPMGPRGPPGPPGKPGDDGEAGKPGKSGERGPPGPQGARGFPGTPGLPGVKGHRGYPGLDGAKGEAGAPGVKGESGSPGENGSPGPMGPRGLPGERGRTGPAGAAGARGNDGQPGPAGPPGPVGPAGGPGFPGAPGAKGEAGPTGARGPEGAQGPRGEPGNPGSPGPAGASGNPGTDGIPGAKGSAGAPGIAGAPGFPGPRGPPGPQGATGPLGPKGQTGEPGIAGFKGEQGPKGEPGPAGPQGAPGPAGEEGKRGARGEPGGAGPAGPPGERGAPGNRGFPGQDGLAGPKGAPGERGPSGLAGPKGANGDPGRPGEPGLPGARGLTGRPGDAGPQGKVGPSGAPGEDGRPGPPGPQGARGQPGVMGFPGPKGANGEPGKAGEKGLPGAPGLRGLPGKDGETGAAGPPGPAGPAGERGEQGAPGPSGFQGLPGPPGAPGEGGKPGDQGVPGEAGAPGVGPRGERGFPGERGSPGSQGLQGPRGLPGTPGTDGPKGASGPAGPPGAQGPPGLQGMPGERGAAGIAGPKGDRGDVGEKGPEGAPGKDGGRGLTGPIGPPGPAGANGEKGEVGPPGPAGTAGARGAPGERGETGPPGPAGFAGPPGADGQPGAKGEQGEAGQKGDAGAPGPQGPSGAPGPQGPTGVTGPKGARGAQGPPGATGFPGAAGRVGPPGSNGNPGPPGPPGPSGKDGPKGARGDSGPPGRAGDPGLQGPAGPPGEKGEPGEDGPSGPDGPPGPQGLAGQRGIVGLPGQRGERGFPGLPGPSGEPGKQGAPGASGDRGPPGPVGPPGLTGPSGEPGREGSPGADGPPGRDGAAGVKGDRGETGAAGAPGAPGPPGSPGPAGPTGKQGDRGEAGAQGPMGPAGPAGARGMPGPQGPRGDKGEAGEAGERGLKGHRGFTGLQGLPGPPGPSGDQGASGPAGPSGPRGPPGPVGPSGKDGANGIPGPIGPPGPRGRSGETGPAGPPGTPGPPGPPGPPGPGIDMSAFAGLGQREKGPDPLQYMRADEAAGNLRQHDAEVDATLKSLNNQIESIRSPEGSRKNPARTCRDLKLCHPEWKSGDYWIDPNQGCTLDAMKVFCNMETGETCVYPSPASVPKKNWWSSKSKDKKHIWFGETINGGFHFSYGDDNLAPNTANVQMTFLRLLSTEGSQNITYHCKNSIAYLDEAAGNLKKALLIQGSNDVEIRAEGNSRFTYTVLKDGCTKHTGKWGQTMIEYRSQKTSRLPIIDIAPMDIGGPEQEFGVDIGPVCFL
T2 sequence (P02458 182-1241): as the sequence (P02458 182-1241) above

B1: CID 211519: homodimer of SEQ ID NO: 11 (protein)
chain: IAAKFDEAQQAAFYEILHLPNLTEQQRNYFIQWLRDDPSVSPTVLGTAQQLNDSQAPKIAAKFDEAQQAAFYEILHLPNLTEQQRNYFIQWLRDDPSVSPTVLGTAQQLNDSQAPK
modifications: Col2 binding protein (dimer) 211519
One may read the Kd as the equilibrium constant for the complex coming apart. As for B1, the “Binding to type II collagen via SPR” value in data set [1] (FIG. 3, FIG. 4A) is “binding to Type II collagen with transient binding signal”. In addition, the “Affinity [SPR] vs hCol2” value in data set [1] (dimers or tetramers, Langmuir 1:1 model) stood at 784 nM. Besides, the Kd in data set [1] (multi-cycle Biacore measurement, FIG. 4B, read-out: KD for Type II collagen, equilibrium fit of amplitudes) is 780 nM. In addition, the “Binding to Type V collagen (SPR)” value in the data set with Type V collagen is recorded as “no binding”. For the same molecule, in data set [2], the “binding affinity (KD) to human type II collagen (ELISA)” value worked out at 700 nM. For the same molecule, the “Binding to Type III collagen (SPR)” value with Type III collagen is “no binding”. Moreover, the “specific binding vs porcine type II collagen (ELISA)” value in data set [3] stood at 0.7 µM. In data set [4], the “Solubility Soluble expression” value is 95%. Further, the “Binding to Type I collagen (SPR)” value with Type I collagen was “no binding”.

Source of the values: patent publication US20230416345A1, “NEW TYPE II COLLAGEN BINDING PROTEINS” (Navigo Proteins GmbH, priority 2020, published 2023).
